The values below come from the NTF2 design screens of Basanta et al. (2020).

The nature of this data set: protease stability score; higher = more stable; yeast display proteolysis, trypsin and chymotrypsin.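 Also: relative to predicted unfolded state with 0 unfolded-like and 1 meaning tenfold more protease.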
“DEQERIIRRLTELFTRAEKTGDWKNFLELADPHVRLKYGEFDHIGREEFYTLKEHVDKKLGIEFRDTDIKDLVVVGDKAVSHLTNDGEVNGVRHELSLNVVISKFNGRWELEQVEIK” displayed a protease stability score of 0.897. “DEQERLMRKLAEIIVEAIITGDWRSLAELFDPDVRIDINGRELIGRETWVTWLQEEYKRFKNQRIELHIRDVDVQGDYSHIDGHSRIVIGDFVFTTEIHTEIVIIDGRVHSMHHHVK”: the protease stability score was found to be 1.18.

The sequence “DEQERRSRELLHLWLELFETGDEDNMQEFLDPNVRLIIIQGDNQVNHHGWENMVKIAKFYKNMQIKVHDVEFQGDKVIMDTRLLVDGRLRHTTVILDIVNGVIKHVEIRYS” had a protease stability score of 1.69. The figure for “DEQETHNNNILERLIRILHTGDEHIYEHLFDPHARLHIGDKRFHGREELSRWLRRLGVRWEHFIERDVEVQGEKLRIEGERTVHIDGVRHHHRTEIIIIVIDGKIKSYEERHV” is 0.572; for “DEQFKEQKDMHRELEEALLTGDEESWHRLMDPNTRLFFEGRIHHGREEVVRAIREIRRRFGFKVIKRFEVEHVEIIDGRVDIRTIIRGEVNGRDSSLDTRLILNKIDGKWVIQSIIIE” it is 2.2. The figure for “DEQHEEAERAMEHMNRIEHTGDEDDLDRLMDPRTKIEVGDKELHGRHLWRVFLREARIHDSKIRDIRVIGDKVTFHTEVRITINGVEVRVHVIMIIEKVDGKWLVHRVIIR” is 1.35. Turning to “DEQHKEVRTFLEIHINMRATGNEEILFHQVDPHVRLIINGRQFHGWEEYEKFAHTSARFFKNVQIRIHRVEVYIQGDKIHVNMHVWYNVNGQTMEVDLHSEMIKVDGQWRLDSEIISIR”, the protease stability score amounted to 1.33. The sequence “DEQKHVFNNVLRWLLESLETGDEEDLERLMDPNTRLHINGQDLHGREALRKHIEHRLKSLGVDHVHLRVHDVHIIDGKIEVDSELDLKIGDKEIRMKVRLIALKINGRWLVKHFDVT” gave a protease stability score of 1.29. Regarding “DEQKNWAKIMLELLEHAWRTGDEHTLQELADPNTRLNIGDKDIIGWDLILTVLIEIRMSFSYRLEEVHTFENHVVLRTRLIRVLHFDGKSTEFVKETELYIEKVDGRWILRHIVIK”, the protease stability score amounted to 1.29. The figure for “DEQNELLDRLSTILLRLLWTGDEDQWLRLADPDMKLDVGNFKTVGRERVIEIFRAWERHIRVERMHLEDTKLQGDFYFSDYRVDGQINGQRTDTRVIYIFVVVNGRMKSIKVIIE” is 1.34; for “DEQQEDAEHATELLLRLLETGDWSTFEKLMDPHVRVDIGDKHLHGREMSSHFIKELVERYPNLRISFKDMRVQGEFIHVIGEVNFNGQRFHSEWVVLKVDGRWTINSVRIE” it is 1.28; for “DEQSRVSEEVIKIWLESVNTGDEKSLSELIDPNVKIHVNGKKMHGWRDAEDHARRIDHMHVEDFKIESIQTQGDFAILHGRLVYSRIVNGVELHSDEHVEMVILKYNGRWSIEEVRVR” it is 1.27.

As to “DEQTELEDKMRELIMRTWDTGDEKLLQELADPDARAHFNINGQTDSRHGREEILRLFIKLWEILGVDHLHLQHVSVIDGKFHIHQEVRYDGKVTFLHIHVWIVNGRNRQFNVHIEHR”, the protease stability score was 0.407. The figure for “DERDEAEKVLMKILLDNHHTGDEESLERLIDPNAKIIYGDKDYVGWELMIEWVRHARVHRVEIKDSRVQGDKVNLDGHEDGNINGKRRRTNVIVYLLKINGRWFFHSIQID” is 2.17; for “DERDEEAHRMTETFYELQRTGDEESTHHLADPHVKFEYLIGDKYFEIHGWDRVLEFWLRYKGVREEIDHRRVRVINGKIHIELIVKIRIGDKTHVHRIELNIEKVDGRWILREVRVEVK” it is 1. The figure for “DERDEETRRAIEWWVEVLKTGNFKDIKELADPNARVHQGDKHFHGMDHFLDFLERLGIDHVQINHIHYFDGKIEIDHHVRIGDKETRVIFISDKIDGRWRITEVQFH” is 1.13; for “DERDEHAHHFFELLLKMWETGDEHELIKFFDPDPRFIYNGKELHGREIAEEFIKEWRVHDMRVKRINVQGEKVIFDGIMDGEFNGKRIFIETHIYMTKVNGKWRTKFIEFN” it is 1.42. The figure for “DERDEHSRHVAELWLQSMETGDWEHDRRLLDPNMKFEAPNHSLHGRDSYVETMRKIKNLVIHDTKIEHYEVQGDKAHVQMRIDVIVGDKRTWVEVRVEIVVVDGVLHSLRIEIE” is 0.777; for “DERDELLEHVIKLHQDALRTGDEHTLTELMDPHVRVIIGDKHHHGWESITKYLRELRFHSHEVHIDHVHIFNGRIHADITLRGTHHFNGRTFHDTHKVELINTKINGKWTIESLIIR” it is 1.15; for “DERDELVEIVFRLYLRLLTTGDEQEWHHLADPDTRLHIGDKDFHGRENVNKHRRDNLERVKGIKLRDVKITQVHLIDGVLHIDIRLDVEYDGRRTELKVRVISEKVDGKWFIKSIIIE” it is 1.44. In turn, “DERDELVRQLMEWLVRAYITGDFETLKNLFDPNAKVRVNGRELIGMETFWQLLWHLRFTDHKIDSVEMQGEKVTVNVTLFIDVNGREETKKSHLIFVVVNGRLKSMDFRYE” returned a protease stability score of 1.66.

“DERDEMSRHLVRLWIRLYRTGDWKELYDNLDPNARLIIGDKEYHGREEVVEIFLELAKRFKNVKVEFKEIHFQGDKMTLREEVRQGDWRVEVIIKVEFIDGKLHHVQIIFG” came in with a protease stability score of 2.75. The figure for “DERDEMTDHALQRVHEMLLTGDERLLSELFDPNARSQIGDKHVHGRDEVAKTFTEQLEKLGVDHVHFRSVDIQGEKLIIHMHFRVGDKHFQVIIIIVKVNGRWYWTNMHVILH” is 1.1. The figure for “DERDEQAEEAMKIWIHSVQTGNEDLLRRLVDPHVRITVGDKEIHGREQFAEYYHRLVTELRIHIHIHRITVINGQVHSHVEIRIQIGDKEISFETRMFILKVDGVWLFKREEVT” is 0.744. The figure for “DERDERLTEFLELYFKLWFTGDEDTFAHLADPNTRSVFNGKWIHGMESYSEWVEKHMRHLRFKDMKIRDSRVVDGQIHMNTEVEGEVNGQRYRVETRIILDVIDGRIKEVRLHIH” is 1.24.

“DERDESLKNIFELLERILETGDEDDSSKLADPHTRMHWNGKELHGRELYADLFDRLLRELGVDHVRLKIHEVRIQGDKIRMDGTLHLIQGDKEERRRVHLVAHKINGRWHIKQVSIN” yielded a protease stability score of 1.26. The figure for “DERDEVLEDTARRVLEWLTTGNWEELAKYADPNVKNDINGRIDHGREEMSRRIREELHKVKNLKFNITYFDIIGDKVHFWGTLHYDGRTMETHIHIEVVDGRLHHMQFEIK” is 0.983; for “DERDEYLHEWTRLLIELFETGNFEFLVEMMDPNVQIDIGDKHFIGWELAVHFLEEFLRQFKNARWEITRFRRYDGRIEMDTIMRINGREIKVKIIVIVIDGRVKSRHEEYR” it is 0.595.

Take “DERDREVHLASELLHRIVRTGNEEVFEDYLDPNVRVRVNGVESWGMDSFKHWLKEIRIHSHEVDHFDVIGDKLHFDTRVDGEFDGRRDIYKSEVHAEKINGRWIFKIVIFR”: the protease stability score worked out at 1.19. “DEREDEVRLATEHVERILQTGDEELFRHFVDPRVRMDYNGKDVHGREVILEWIVKIKNLTVRIDDVEVQGDKMLIRSHWTIGDKQHHLRIIATKINGRWESTSVHIH” gave a protease stability score of 1.02. Sequence “DEREEASERMAELIVHLFETGDEDLIRRMVDPHVRWEFNGREIMGRELTTHVLHEIYHRVKNIRYRIESLDIQGDWLLVNSRLHVNGRTIEIHLIVEKVNGRWTLRELIVKVD” registered a protease stability score of 1.65. The figure for “DEREEDAREAEEIILEDLRTGDWERISRNFDPNVRMHVGDKKYHGREDAIREIKRLMSDMGIKHHSITDSRLQGEWLFLHVEVHFNGRTHDVEIIMIKVNGKWVFKEVRIG” is 1.99; for “DEREEEAERILREWIKAVETGDFEQIMRYLDPNVRIIVNGKHHHGREILVHLIIRFLRELGADHITFHHDRIHLYDGVLVIDIHLEIRQGDKRYEFHEEIYIIKVNGRWIVRRVIIR” it is 2.8; for “DEREEEAERIMRLFQEFERTGDEDMLRHLVDPDARWVVGDKFQHGWHHFHRLLHHLRVRDLKPKSLHIDVQGDKVEVILHQEMDGEINGKRVIYHVVVIIIVNKFNGRWRNETVEVRFH” it is 0.843.

“DEREEEARKWIELFLRHLLTGDEDSLQELADPHTRNIVGDKDLIGWRFMIKYVRDVRERFDHIEFHITRMEVQGDKVRVDVRIINIVGDKHFEIESHIVTEKINGKWRLKSMELR”: the protease stability score stood at 1.51. The figure for “DEREEELHHMLEVLEFAFHTGDFEKLSKMFDPHVRIDVNGQELHGWKHAHEHIEDLFRKVKNIRLEFRDIRFQGDKIDIDGIMIFNGVRHEVKIITVKVNGRWLWRSINIH” is 2.33. The figure for “DEREEEMQRIMEDFIRAWSTGDEKRLKELIDPRDRMIINGKERHGMEEWKTLWETLGINYIDIEHVHLQGEKARIHGTSKFNGRHHEVRIEIRVVDGRFTEVHVDII” is 1.78; for “DEREEESERWVRLLLHYLLTGDFRRIEELVDPNARSIIGDKRHHGREIVVEWMTRYKNARVEVKDFHIQGDKLQLHVEVQIDGRTFKLDIELYKVNGKWLLRTLHVEEL” it is 1.44; for “DEREEESKRATEKVTRDIHTGDEDLHRHLLDPNAKLVFNGREFVGREEVEKILKWFLDRAGVDKINMTIHDVRVVDGRIKLDGRNNINGVEYTVIWISEKYNGRWFDRMIIFS” it is 0.493. In the case of “DEREEFIHIAIHLLIHVDRTGDEDTYRKMMDPTTKLEVNGVKYIGRQEVIKFLRHIRIDSQDIKRWELVGDKVDLDVHVDGDVNGRRVREDRQIHLWKVDGRWVLEKIEYK”, the protease stability score worked out at 0.955. The figure for “DEREEFVLSMAELWIHAVLTGDEELERQLIDPHARNNINGRTIHGMEMFNKFWIRLLQEIRFEIEIRRFHIQGEKMHFDGVLRLRYDGREEVLRVHVEIVIVDGRLHEVHIKIK” is 1.33; for “DEREEHAEEIFRELIHWMETGDEKKMRRYFDPHARLEVGDKEFIGREKISEWMVELRLKDHKERHFDVVNGVAEIHGVMDGIIDGRRHRTEVIIDINIINGKFHRIRIIVK” it is 1.21; for “DEREEHHEENARLLLEQFKTGNWDFLRSLADPNVQHNWDGRKSHGRESMVRLLIDHIRKVKGMRTEEKEVEFQGDKVILHGRVNINGREIEVIFILEVVDGRIKSLHIDFR” it is 0.697. The figure for “DEREEIAKHLLDLLMHFSKTGDWKKIEDLFDPNTRIHINGVEHVGMEEIARHISEWRIHSIHIKHLDYQGEFIHMDGELDVEVNGRRHKTRMHIIVVKYNGRWLIHHIEVH” is 2.03; for “DEREEIIRKALELFIFSMKTGDEHTLTELLDPNVRLLVGDKEFHGREVFHILIQQFKNIRVEHFEHKDWYEQGDKMRITGRLTFRQGDKRTEIDTTLIILKINGRWIMHDIVIS” it is 2.17. The figure for “DEREELAEHMIRLLTERLITGDERIEQELADPNVRFELDINGKSVDTHGMENVLEWIRKWYEHFGVTNFDLRIHRIRVIGEYAHNDGEIIQGDKTRRVHIRMVVINGRVHEVIIHVR” is 1.22; for “DEREELDEHWFRLQFQAMETGDENLVRDNLDPHVKVVVGDKEFVGRHYAIRLFHDLGVDHLVKKSEDRQGEKVIVHGRLDIGDKRHEIVLIIRKIDGKWVVHEIIIR” it is 1.35.
